From paper PMC4850381 (2016)
Where a chain is given by its changes, count along the chain named.

T1: tree shrew CRHR1 extracellular domain (tree shrew)
T1 chain: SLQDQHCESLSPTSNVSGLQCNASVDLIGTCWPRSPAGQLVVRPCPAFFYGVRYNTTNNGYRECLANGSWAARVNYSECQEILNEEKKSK

T2: human CRHR1 extracellular domain (human)
T2 chain: T1 chain with P12L, T13A, V16I


Experiments:
[1] = target: T1, tree shrew CRHR1 extracellular domain; assay: SPR; BIACORE3000; CRHR1-ECD immobilised on the sensor chip (about 2000 RU, 10 mM NaAc pH 4.5); CRH peptides serially diluted (5 concentrations) in PBS pH 7.4, 30 μl/min, 3 min injection, 2 min dissociation, 25 °C
[2] = target: T2, human CRHR1 extracellular domain; assay: SPR
[3] = target: T1, tree shrew CRHR1 extracellular domain; assay: SPR
[4] = target: T2, human CRHR1 extracellular domain; assay: SPR; BIACORE3000; CRHR1-ECD immobilised on the sensor chip (about 2000 RU, 10 mM NaAc pH 4.5); CRH peptides serially diluted (5 concentrations) in PBS pH 7.4, 30 μl/min, 3 min injection, 2 min dissociation, 25 °C

| Kd [1] [nM] | Kd [2] [nM] | Kd [3] [nM] | Kd [4] [nM] | Molecule |
| --- | --- | --- | --- | --- |
| 176 | – | – | – | tree shrew corticotrophin-releasing hormone (CRH) peptide |
| – | 2050 | 1760 | – | SEEPPISLDLTFHLLREVLEMARAEQLAQQAHSNRKLMEMI [tree shrew corticotrophin-releasing hormone (CRH) peptide] |
| – | 2110 | 1460 | 211 | SEEPPISLDLTFHLLREVLEMARAEQLAQQAHSNRKLMEIIGK [human corticotrophin-releasing hormone (CRH) peptide] |
